Data as given in article PMC5362816.
Values belong to the binder of their own block, whether it stands above or below them.

Target: CaM-agarose (Sigma), P62157
Assay: pull-down; CaM-agarose (Sigma) incubated with HEK293 lysate expressing a V5-His-tagged TRP channel; 20 mM Tris-HCl pH 7.4, 150 mM NaCl, 1% NP-40, 4 °C; 1 mM Ca2+ (Fig. 2A) or 2 mM Ca2+ (Fig. 2B); blot with anti-V5
Details: remark: other sources report otherwise

relative binding to CaM (normalized by total input): 0.9
B1: TRPM8 (V5-His tagged), Q8R455 1-1104 (natural protein)
chain: MSFEGARLSMRSRRNGTLGSTRTLYSSVSRSTDVSYSESDLVNFIQANFKKRECVFFTRDSKAMESICKCGYAQSQHIEGTQINQNEKWNYKKHTKEFPTDAFGDIQFETLGKKGKYLRLSCDTDSETLYELLTQHWHLKTPNLVISVTGGAKNFALKPRMRKIFSRLIYIAQSKGAWILTGGTHYGLMKYIGEVVRDNTISRNSEENIVAIGIAAWGMVSNRDTLIRNCDDEGHFSAQYIMDDFMRDPLYILDNNHTHLLLVDNGCHGHPTVEAKLRNQLEKYISERTSQDSNYGGKIPIVCFAQGGGRETLKAINTSVKSKIPCVVVEGSGQIADVIASLVEVEDVLTSSMVKEKLVRFLPRTVSRLPEEEIESWIKWLKEILESPHLLTVIKMEEAGDEVVSSAISYALYKAFSTNEQDKDNWNGQLKLLLEWNQLDLASDEIFTNDRRWESADLQEVMFTALIKDRPKFVRLFLENGLNLQKFLTNEVLTELFSTHFSTLVYRNLQIAKNSYNDALLTFVWKLVANFRRSFWKEDRSSREDLDVELHDASLTTRHPLQALFIWAILQNKKELSKVIWEQTKGCTLAALGASKLLKTLAKVKNDINAAGESEELANEYETRAVELFTECYSSDEDLAEQLLVYSCEAWGGSNCLELAVEATDQHFIAQPGVQNFLSKQWYGEISRDTKNWKIILCLFIIPLVGCGLVSFRKKPIDKHKKLLWYYVAFFTSPFVVFSWNVVFYIAFLLLFAYVLLMDFHSVPHTPELILYALVFVLFCDEVRQWYMNGVNYFTDLWNVMDTLGLFYFIAGIVFRLHSSNKSSLYSGRVIFCLDYIIFTLRLIHIFTVSRNLGPKIIMLQRMLIDVFFFLFLFAVWMVAFGVARQGILRQNEQRWRWIFRSVIYEPYLAMFGQVPSDVDSTTYDFSHCTFSGNESKPLCVELDEYNLPRFPEWITIPLVCIYMLSTNILLVNLLVAMFGYTVGIVQENNDQVWKFQRYFLVQEYCNRLNIPFPFVVFAYFYMVVKKCFKCCCKEKNTESSACCFRNEDNETLAWEGVMKENYLVKINTKANDNAEEMRHRFRQLDTKLNDLKGLLKEIANKIK
modifications: here or on the partner: coupled to agarose

relative binding to CaM (normalized by total input): 0.8
B2: TRPV2 (V5-His tagged), Q9WUD2 1-761 (natural protein)
chain: MTSASSPPAFRLETSDGDEEGNAEVNKGKQEPPPMESPFQREDRNSSPQIKVNLNFIKRPPKNTSAPSQQEPDRFDRDRLFSVVSRGVPEELTGLLEYLRWNSKYLTDSAYTEGSTGKTCLMKAVLNLQDGVNACIMPLLQIDKDSGNPKLLVNAQCTDEFYQGHSALHIAIEKRSLQCVKLLVENGADVHLRACGRFFQKHQGTCFYFGELPLSLAACTKQWDVVTYLLENPHQPASLEATDSLGNTVLHALVMIADNSPENSALVIHMYDGLLQMGARLCPTVQLEEISNHQGLTPLKLAAKEGKIEIFRHILQREFSGPYQPLSRKFTEWCYGPVRVSLYDLSSVDSWEKNSVLEIIAFHCKSPNRHRMVVLEPLNKLLQEKWDRLVSRFFFNFACYLVYMFIFTVVAYHQPSLDQPAIPSSKATFGESMLLLGHILILLGGIYLLLGQLWYFWRRRLFIWISFMDSYFEILFLLQALLTVLSQVLRFMETEWYLPLLVLSLVLGWLNLLYYTRGFQHTGIYSVMIQKVILRDLLRFLLVYLVFLFGFAVALVSLSREARSPKAPEDNNSTVTEQPTVGQEEEPAPYRSILDASLELFKFTIGMGELAFQEQLRFRGVVLLLLLAYVLLTYVLLLNMLIALMSETVNHVADNSWSIWKLQKAISVLEMENGYWWCRRKKHREGRLLKVGTRGDGTPDERWCFRVEEVNWAAWEKTLPTLSEDPSGPGITGNKKNPTSKPGKNSASEEDHLPLQVLQSP
modifications: here or on the partner: coupled to agarose
